Reference: IntAct's records for PubMed 25374563

B1: Tyrosine-protein kinase YwqD (Bacillus subtilis), P96716 (parent)
chain: MALRKNRGSRMQRNVIAMTEPKSLNSEQYRTIRTNIEFASVDRQMKSVMITSACPGEGKSTTAANLAVVFAQQGKKVLLIDADLRKPTVHTAFFLENTVGLTSVLLKKSSMEQAVQASNEKHLDVLTSGPIPPNPAELLSSKWMKELAYEACAAYDMVIFDTPPILAVADAQILGNVADGSVLVISSGKTEKEQAAKAKEALATCKSKLLGAIMNGKKLSKHSEYGYYGTKDNFMQK
partner: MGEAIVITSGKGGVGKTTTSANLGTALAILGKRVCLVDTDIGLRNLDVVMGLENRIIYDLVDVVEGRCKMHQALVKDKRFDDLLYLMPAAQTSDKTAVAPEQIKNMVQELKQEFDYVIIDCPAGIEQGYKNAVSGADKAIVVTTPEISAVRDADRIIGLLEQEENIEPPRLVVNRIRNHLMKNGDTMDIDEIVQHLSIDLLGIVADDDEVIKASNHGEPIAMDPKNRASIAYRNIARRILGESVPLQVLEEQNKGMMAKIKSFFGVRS

Variants of: B1
Details: with mind_bacsu minD

effect of a mutation on the interaction | Variant
decreasing interaction strength | MALRKNRGSRMQRNVIAMTEPKSLNSEQYRTIRTNIEFASVDRQMKSVMITSACPGEGKSTTAANLAVVFAQQGKKVLLIAADLRKPTVHTAFFLENTVGLTSVLLKKSSMEQAVQASNEKHLDVLTSGPIPPNPAELLSSKWMKELAYEACAAYDMVIFDTPPILAVADAQILGNVADGSVLVISSGKTEKEQAAKAKEALATCKSKLLGAIMNGKKLSKHSEYGYYGTKDNFMQK [D81A]
disrupting interaction strength | MALRKNRGSRMQRNVIAMTEPKSLNSEQYRTIRTNIEFASVDRQMKSVMITSACPGEGMSTTAANLAVVFAQQGKKVLLIDADLRKPTVHTAFFLENTVGLTSVLLKKSSMEQAVQASNEKHLDVLTSGPIPPNPAELLSSKWMKELAYEACAAYDMVIFDTPPILAVADAQILGNVADGSVLVISSGKTEKEQAAKAKEALATCKSKLLGAIMNGKKLSKHSEYGYYGTKDNFMQK [K59M]
